Assay results as given in patent US20250011363A1, “OPTIMIZED SHORTENED PEPTIDE THAT BINDS TO ACETYLCHOLINE RECEPTOR, AND USE THEREOF” (SKINMED CO., LTD., priority 2021, published 2025).

These binders were tested against acetylcholine receptor (assay: SPR, receptor immobilized, peptide 10 uM).

Row | Binder | Binding affinity (RU)
1 | RMEKK [5mer-792] | 31 RU
2 | KADMK [5mer-1077] | 12 RU
3 | RYTHK [5mer-1080] | 25 RU
4 | RIDPR [5mer-781] | 28 RU
5 | KTKMR [5mer-791] | 26 RU
6 | KDNIR [5mer-787] | 17 RU
7 | RTTER [5mer-1085] | 14 RU
8 | RCDFR [5mer-776] | 17 RU
9 | KISGK [5mer-1090] | 31 RU
10 | KYHGK [5mer-788] | 16 RU
11 | KCKVR [5mer-783] | 29 RU
12 | KYTGR [5mer-1079] | 31 RU
13 | KKPHR [5mer-793] | 19 RU
14 | KKKKR [5mer-1087] | 11 RU
15 | KETHK [5mer-797] | 15 RU
16 | KANAR [5mer-782] | 32 RU
17 | KEAPK [5mer-794] | 20 RU
18 | RACFR [5mer-1082] | 11 RU
19 | KFSVR [5mer-1083] | 31 RU
20 | RFNKK [5mer-786] | 29 RU
21 | KAEKR [5mer-1095] | 27 RU
22 | KNWVR [5mer-796] | 17 RU
23 | RYNWK [5mer-777] | 28 RU

Row | Binder | Binding affinity (RU)
24 | KFEKK [5mer-1076] | 21 RU
25 | KTEHR [5mer-1091] | 29 RU
26 | RDSHK [5mer-780] | 27 RU
27 | KTHHR [5mer-1089] | 29 RU
28 | KAKKK [5mer-1088] | 16 RU
29 | KEAWK [5mer-1078] | 19 RU
30 | RYSMK [5mer-1094] | 15 RU
31 | REAGK [5mer-790] | 33 RU
32 | RPTDK [5mer-1096] | 15 RU
33 | KKDHK [5mer-778] | 24 RU
34 | RPNVR [5mer-1081] | 13 RU
35 | RTKKR [5mer-795] | 20 RU
36 | RETMK [5mer-798] | 13 RU
37 | REEDK [5mer-1093] | 32 RU
38 | RIWDR [5mer-1086] | 19 RU
39 | RKHIK [5mer-1075] | 26 RU
40 | KPTIR [5mer-785] | 31 RU
41 | RACEK [5mer-784] | 21 RU
42 | KFWIR [5mer-789] | 12 RU
43 | KPMVK [5mer-1092] | 12 RU
44 | RTHDR [5mer-1084] | 21 RU
45 | KYPPR [5mer-779] | 21 RU

Now from value to binder:

Row | Binding affinity (RU) | Binder
46 | 154 RU | KRVIRR [6mer-1-152]
47 | 139 RU | KRGRRR [6mer-1-146]
48 | 127 RU | RRVRSR [6mer-1-155]
49 | 142 RU | RKRQCR [6mer-1-150]
50 | 139 RU | KRRYCK [6mer-1-161]
51 | 154 RU | RRSVTK [6mer-1-156]
52 | 145 RU | KRGQYK [6mer-1-164]
53 | 122 RU | RRRYQR [6mer-1-167]
54 | 141 RU | RKVFQR [6mer-1-145]
55 | 125 RU | KKQIQR [6mer-1-147]
56 | 139 RU | KRLRRK [6mer-1-159]
57 | 146 RU | KKWQQR [6mer-1-153]
58 | 145 RU | KRGVRR [6mer-1-151]
59 | 124 RU | RKVVTR [6mer-1-138]
60 | 31 RU | RFHGR [5mer-1098]
61 | 145 RU | KRGVLR [6mer-1-143]
62 | 123 RU | KKSLLR [6mer-1-157]

Row | Binding affinity (RU) | Binder
63 | 148 RU | RRWYSK [6mer-1-166]
64 | 148 RU | KRQVQR [6mer-1-140]
65 | 28 RU | KPDIR [5mer-1097]
66 | 148 RU | RKRYTR [6mer-1-144]
67 | 121 RU | RRLFRR [6mer-1-137]
68 | 146 RU | RKLRCR [6mer-1-148]
69 | 123 RU | KKVYYK [6mer-1-142]
70 | 131 RU | RRLIYR [6mer-1-158]
71 | 141 RU | RKLYQK [6mer-1-141]
72 | 131 RU | RRWVCK [6mer-1-149]
73 | 148 RU | KKWFTK [6mer-1-165]
74 | 122 RU | KRRFLR [6mer-1-139]
75 | 153 RU | KKLYSR [6mer-1-154]
76 | 148 RU | RRWLYK [6mer-1-136]
77 | 149 RU | RRVIQR [6mer-1-160]
78 | 147 RU | KRLQTK [6mer-1-163]
79 | 142 RU | KKSLSK [6mer-1-162]
